# T1: human FXIIa (human, UniProt P00748 20-615, limits assumed)
# T1 sequence: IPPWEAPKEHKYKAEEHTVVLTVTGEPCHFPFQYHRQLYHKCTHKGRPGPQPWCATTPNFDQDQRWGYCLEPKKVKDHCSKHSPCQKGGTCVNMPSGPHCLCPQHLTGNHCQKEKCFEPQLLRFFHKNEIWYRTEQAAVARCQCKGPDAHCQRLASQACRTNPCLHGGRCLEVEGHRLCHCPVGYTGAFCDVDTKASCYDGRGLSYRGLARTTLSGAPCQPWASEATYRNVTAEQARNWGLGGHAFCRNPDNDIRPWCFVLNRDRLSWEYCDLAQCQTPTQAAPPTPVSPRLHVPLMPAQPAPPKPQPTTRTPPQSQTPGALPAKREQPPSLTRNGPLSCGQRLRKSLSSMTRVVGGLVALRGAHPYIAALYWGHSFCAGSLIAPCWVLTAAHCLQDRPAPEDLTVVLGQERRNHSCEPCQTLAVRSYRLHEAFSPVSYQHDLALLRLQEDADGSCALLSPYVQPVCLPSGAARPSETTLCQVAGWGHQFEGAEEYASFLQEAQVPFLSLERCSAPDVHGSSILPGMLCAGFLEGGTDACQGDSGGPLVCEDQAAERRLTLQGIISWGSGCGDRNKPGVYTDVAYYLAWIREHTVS
# T2: human Factor XIIa-beta (human, UniProt P00748 354-615, limits assumed)
# T2 construct: Bought from Enzyme Research Laboratories; also called FXIIa beta; FXIIa-beta
# T2 sequence: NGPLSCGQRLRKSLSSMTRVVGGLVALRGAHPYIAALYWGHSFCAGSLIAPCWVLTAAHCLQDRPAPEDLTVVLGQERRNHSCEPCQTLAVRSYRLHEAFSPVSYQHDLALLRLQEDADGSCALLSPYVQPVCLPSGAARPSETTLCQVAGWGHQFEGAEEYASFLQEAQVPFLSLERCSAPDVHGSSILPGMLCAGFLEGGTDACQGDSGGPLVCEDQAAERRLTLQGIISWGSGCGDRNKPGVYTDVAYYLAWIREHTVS
# T3: Mu-FXII I438A mutant with C-terminal 8xHis-tag (mouse, UniProt Q80YC5 20-597)
# T3 construct: Culture supernatant; also called mutant f) I438A
# T3 sequence: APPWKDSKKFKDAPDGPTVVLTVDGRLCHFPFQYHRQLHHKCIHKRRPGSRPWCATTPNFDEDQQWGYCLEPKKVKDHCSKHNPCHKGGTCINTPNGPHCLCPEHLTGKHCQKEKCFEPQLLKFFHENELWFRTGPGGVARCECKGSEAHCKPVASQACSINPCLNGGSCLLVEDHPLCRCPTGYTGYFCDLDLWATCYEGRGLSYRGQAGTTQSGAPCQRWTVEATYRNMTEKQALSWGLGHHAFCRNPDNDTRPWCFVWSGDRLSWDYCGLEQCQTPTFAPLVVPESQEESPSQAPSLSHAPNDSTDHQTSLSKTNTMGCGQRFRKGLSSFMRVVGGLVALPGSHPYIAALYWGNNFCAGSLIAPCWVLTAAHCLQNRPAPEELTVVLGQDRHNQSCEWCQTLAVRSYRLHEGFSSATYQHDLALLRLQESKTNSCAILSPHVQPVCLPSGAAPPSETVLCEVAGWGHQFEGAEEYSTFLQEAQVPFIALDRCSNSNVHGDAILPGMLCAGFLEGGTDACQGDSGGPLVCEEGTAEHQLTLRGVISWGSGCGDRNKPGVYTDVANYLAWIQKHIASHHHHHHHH
# T4: human Factor XIIa-alpha (human, UniProt P00748 20-615)
# T4 sequence: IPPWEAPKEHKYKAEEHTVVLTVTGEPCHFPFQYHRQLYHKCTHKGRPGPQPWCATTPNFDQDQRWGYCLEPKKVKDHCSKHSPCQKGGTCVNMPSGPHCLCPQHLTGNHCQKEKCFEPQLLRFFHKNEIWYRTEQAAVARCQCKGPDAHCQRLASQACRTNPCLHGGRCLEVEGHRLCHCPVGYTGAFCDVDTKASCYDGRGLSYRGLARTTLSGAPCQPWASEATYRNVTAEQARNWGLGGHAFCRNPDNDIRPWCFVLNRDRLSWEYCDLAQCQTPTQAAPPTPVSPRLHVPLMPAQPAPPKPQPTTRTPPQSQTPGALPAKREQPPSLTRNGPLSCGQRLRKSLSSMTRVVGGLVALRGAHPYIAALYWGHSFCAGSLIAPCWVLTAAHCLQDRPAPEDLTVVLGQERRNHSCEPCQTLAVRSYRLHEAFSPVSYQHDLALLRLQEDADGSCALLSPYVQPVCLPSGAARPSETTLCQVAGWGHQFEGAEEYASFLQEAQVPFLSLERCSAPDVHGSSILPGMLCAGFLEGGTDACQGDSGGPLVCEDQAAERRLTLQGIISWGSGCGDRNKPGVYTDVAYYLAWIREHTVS
# T5: human Factor XII (human, UniProt P00748 20-615)
# T5 construct: Zymogen bought from Enzyme Research Laboratories; also called FXII
# T5 sequence: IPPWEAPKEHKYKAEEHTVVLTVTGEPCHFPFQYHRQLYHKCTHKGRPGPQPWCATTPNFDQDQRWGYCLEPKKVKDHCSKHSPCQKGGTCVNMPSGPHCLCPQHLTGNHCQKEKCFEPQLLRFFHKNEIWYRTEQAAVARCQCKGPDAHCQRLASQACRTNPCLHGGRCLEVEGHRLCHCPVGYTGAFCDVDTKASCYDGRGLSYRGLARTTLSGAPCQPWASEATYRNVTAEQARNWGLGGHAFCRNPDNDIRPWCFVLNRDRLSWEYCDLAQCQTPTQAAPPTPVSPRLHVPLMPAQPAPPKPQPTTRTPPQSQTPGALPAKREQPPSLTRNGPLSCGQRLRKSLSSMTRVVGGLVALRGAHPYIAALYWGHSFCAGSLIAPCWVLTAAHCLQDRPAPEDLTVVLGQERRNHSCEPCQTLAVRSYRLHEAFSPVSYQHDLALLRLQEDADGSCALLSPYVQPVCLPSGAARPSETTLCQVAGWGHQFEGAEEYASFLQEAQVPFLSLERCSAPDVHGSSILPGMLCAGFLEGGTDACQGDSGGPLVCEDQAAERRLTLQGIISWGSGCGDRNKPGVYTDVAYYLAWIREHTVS
# Assays:
# human FXIIa [1] = target: T1, human FXIIa; experiment: cell-based or functional assay
# human Factor XIIa-beta [2] = target: T2, human Factor XIIa-beta; experiment: SPR (Biacore A100), unpurified IgG4 supernatant captured on anti-human IgG, single FXIIa beta concentration (100 nM), 37 C, 1:1 fit; estimated
# Experimental: Anti-human (Goat anti-human IgG (gamma) mouse adsorbed, Invitrogen, Cat No. H10500) was chemically immobilised on a CM-5 sensor surface using amine coupling chemistry. Culture supernatants were diluted 1/60 with running buffer before capture. Antibodies were captured for 180 seconds representing an average capture of 800 response units (RU). FXIIa beta was then injected at zero and 100 nM for 180 seconds, and dissociated for 180 seconds. All assays were conducted on a Biacore A100 instrument at 37 degrees Celsius and the data fitted to a 1:1 kinetic model.
# [3] = target: T3, Mu-FXII I438A mutant with C-terminal …; experiment: Western blot, non-reducing, 3F7 mAb detected with anti-human IgG-FITC
# Experimental: Proteins were then transferred electrophoretically onto nitrocellulose filters and blocked for 1 hour in 5% Milk powder in Tris-buffered saline with 0.05% Tween-20 (TTBS). Filters were then incubated for 1 hour with either 3F7 mAb or an anti-His mAb 3H3 (both at […] in TTBS with 5% Milk powder), washed thoroughly with TTBS, then incubated for a further hour with anti-human IgG-FITC or anti-mouse IgG-FITC, respectively (Millipore, USA; both at 0.25 mg/ml in TTBS with 5% Milk powder). Following further washing of membranes in TTBS, Ab-FITC bound proteins were visualized using a Typhoon variable mode analyzer (GE Healthcare, USA).
# human Factor XIIa-beta [4] = target: T2, human Factor XIIa-beta; experiment: SPR (Biacore), purified IgG captured on anti-human IgG, FXIIa beta 0-40 nM, 1:1 fit, 25 C
# human Factor XIIa-beta [5] = target: T2, human Factor XIIa-beta; experiment: SPR (Biacore), purified IgG4 captured on anti-human IgG, FXIIa beta 0-40 nM, 1:1 fit, 25 C
# human FXIIa [6] = target: T1, human FXIIa; experiment: cell-based or functional assay; remark: listed apart in the source
# human Factor XIIa-alpha = target: T4, human Factor XIIa-alpha; experiment: cell-based or functional assay
# human Factor XII = target: T5, human Factor XII; experiment: SPR (Biacore), purified IgG captured on anti-human IgG, FXII 0-500 nM, 1:1 fit, 25 C
binder,measurement,setting,value
"monoclonal antibody 3F7 (fully human IgG4/lambda) (antibody, V domains shown, also called 3F7 mAb; MAb 3F7) VH: EVQLLESGGGLVQPGGSLRLSCAASGFTFSKYIMQWVRQAPGKGLEWVSGIRPSGGTTVYADSVKGRFTISRDNSKNTLYLQMNSLRAEDTAVYYCARALPRSGYLISPHYYYYALDVWGQGTTVTVSS VL: QSELTQPPSASGTPGQRVTISCSGSSSNIGRNYVYWYQQVPGTAPKLLIYSNNQRPSGVPDRFSGSKSGTSASLVISGLRSEDEADYYCAAWDASLRGVFGGGTKLTVLG",IC50 (read off the curve),human FXIIa [1],~10 nM
same,Kd,human Factor XIIa-beta [2],33 nM
same,binding result,[3],no binding
same,Kd,human Factor XIIa-beta [4],6.2 nM
same,Kd,human Factor XIIa-beta [5],8.6 nM
same,koff,human Factor XIIa-beta [5],0.0011 s⁻¹
same,kon,human Factor XIIa-beta [5],120000 M⁻¹ s⁻¹
same,"potency in the FXIIa amidolytic activity assay, against OT-2",human FXIIa [6],~2 fold
same,"% Inhibition, ratio FXIIa-alpha:Antibody 1:0.1",human Factor XIIa-alpha,35.5%
same,"% Inhibition, ratio FXIIa-alpha:Antibody 1:0.1 (second 3F7 block)",human Factor XIIa-alpha,38.3%
same,"% Inhibition, ratio FXIIa-alpha:Antibody 1:0.2",human Factor XIIa-alpha,62.5%
same,"% Inhibition, ratio FXIIa-alpha:Antibody 1:0.2 (second 3F7 block)",human Factor XIIa-alpha,66.8%
same,"% Inhibition, ratio FXIIa-alpha:Antibody 1:0.5",human Factor XIIa-alpha,91.9%
same,"% Inhibition, ratio FXIIa-alpha:Antibody 1:0.5 (second 3F7 block)",human Factor XIIa-alpha,91.4%
same,"% Inhibition, ratio FXIIa-alpha:Antibody 1:1",human Factor XIIa-alpha,97.9%
same,"% Inhibition, ratio FXIIa-alpha:Antibody 1:1 (second 3F7 block)",human Factor XIIa-alpha,96.1%
same,"% Inhibition, ratio FXIIa-alpha:Antibody 1:2",human Factor XIIa-alpha,100%
same,"% Inhibition, ratio FXIIa-alpha:Antibody 1:2 (second 3F7 block)",human Factor XIIa-alpha,100%
same,"% Inhibition, ratio FXIIa-alpha:Antibody 1:5",human Factor XIIa-alpha,100%
same,"% Inhibition, ratio FXIIa-alpha:Antibody 1:5 (second 3F7 block)",human Factor XIIa-alpha,100%
same,"% Inhibition, ratio FXIIa-alpha:Antibody 1:10",human Factor XIIa-alpha,100%
same,"% Inhibition, ratio FXIIa-alpha:Antibody 1:10 (second 3F7 block)",human Factor XIIa-alpha,100%
same,Kd,human Factor XII,121 nM

# Reference: US20200062863A1 (CSL BEHRING, published 2020)
